± gives the standard deviation of the averaged measurements.
B1: library; a variant is named by its letters at N, in order (parent)
chain: GCUGUCACCGGUGCUUGGUACGUUAUAUUCAGCCGGUCUGAUGAGUCUNNNNNNAGACGAAACAGC

Tests used:
[1] = variants of: B1; assay: normalized RNA/DNA level without ligand (relative to sTRSVctl = 100) (log10 (% of sTRSVctl)); HEK293T overexpressing SLC46A1; higher = less ribozyme self-cleavage, higher mRNA level; conditions: without (6R,S)-folinic acid; ligand present: no
Procedure, shortened: (§1)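 For each 6-well well, 4 µg of library plasmid encoding mCherry-linked ribozyme switches, or eGFP-linked ones in some ligand experiments, was transfected into HEK293T. Any ligand was added 1 h before transfection, and RNA was extracted with EDTA 72 h after it, then reverse-transcribed, amplified, barcoded and sequenced. RNA level was obtained by dividing RNA reads by DNA reads, normalizing to a spiked-in non-cleaving sequence or to the top sequences, then scaling and log-transforming. The top set was 25 sequences, scaling was ×100 with log10, and ≥100 DNA reads were required.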

[2] = variants of: B1; assay: normalized RNA/DNA level with ligand (relative to sTRSVctl = 100) (log10 (% of sTRSVctl)); HEK293T overexpressing SLC46A1; ligand concentration (+) RNA-Seq: 6 mM; higher = less ribozyme self-cleavage, higher mRNA level; conditions: with (6R,S)-folinic acid; ligand present: yes
Procedure, shortened: as §1

| Variant | normalized RNA/DNA level without ligand (log10) [1] | normalized RNA/DNA level with ligand (log10) [2] |
| --- | --- | --- |
| GAGUUA | 2.008 ± 0.0034 | 2.03 ± 0.022 |
| GAGUUC | 2.013 ± 0.02 | 2.025 ± 0.014 |
| GAGUUU | 2 ± 0.02 | 2.01 ± 0.037 |
| AACUUC | 2.063 ± 0.0082 | 2.039 ± 0.014 |
| AACUUU | 2.01 ± 0.022 | 2.01 ± 0.022 |
| GAGGAG | 1.9 ± 0.013 | 2.031 ± 0.017 |
| GAGGAA | 1.952 ± 0.0031 | 2.01 ± 0.03 |
| GAGGAC | 1.947 ± 0.013 | 2.014 ± 0.016 |
| CACGUC | 2.023 ± 0.0096 | 1.987 ± 0.013 |
| CACGUG | 2.03 ± 0.022 | 2.05 ± 0.05 |
| CACGUU | 2.0092 ± 0.00093 | 1.99 ± 0.038 |
| CAGACG | 2.028 ± 0.0044 | 2.009 ± 0.0054 |
| CAGACU | 2.048 ± 0.0077 | 2.011 ± 0.0042 |
| CAGAUC | 2.046 ± 0.013 | 2.03 ± 0.052 |
| CAGAUU | 1.997 ± 0.01 | 2.004 ± 0.011 |
| CAGAUG | 2.0121 ± 0.0011 | 2.026 ± 0.019 |
| AAGCGU | 1.956 ± 0.0071 | 2.02 ± 0.04 |
| AAGCGA | 1.95 ± 0.02 | 2.02 ± 0.048 |
| AAGCGC | 2.025 ± 0.0081 | 2.03 ± 0.05 |
| AAGCGG | 1.941 ± 0.005 | 2 ± 0.054 |
| AAGGUU | 1.974 ± 0.015 | 2.02 ± 0.025 |
| CAGUCU | 2.018 ± 0.0006 | 2.03 ± 0.038 |
| CAGUCA | 1.967 ± 0.0097 | 1.96 ± 0.058 |

| Variant | normalized RNA/DNA level without ligand (log10) [1] | normalized RNA/DNA level with ligand (log10) [2] |
| --- | --- | --- |
| CAGUCC | 2.051 ± 0.011 | 2.04 ± 0.037 |
| UAGUUU | 2.01 ± 0.0059 | 2.02 ± 0.033 |
| UAGUUC | 2.0145 ± 0.00068 | 2.03 ± 0.027 |
| UAGUUA | 1.932 ± 0.015 | 1.984 ± 0.0094 |
| UAGACC | 2.039 ± 0.0018 | 2.013 ± 0.016 |
| UAGUCC | 2.0087 ± 0.0016 | 2.03 ± 0.057 |
| UAGUCA | 1.98 ± 0.021 | 2.01 ± 0.038 |
| UAGUCG | 1.813 ± 0.0049 | 1.99 ± 0.043 |
| UAGUCU | 2.0118 ± 0.0019 | 2.02 ± 0.037 |
| UAGGAG | 1.63 ± 0.024 | 1.91 ± 0.033 |
| CAGGAG | 1.92 ± 0.022 | 2.03 ± 0.03 |
| CAGGAU | 1.9357 ± 0.0006 | 1.97 ± 0.049 |
| CAGGAA | 1.928 ± 0.0064 | 1.99 ± 0.05 |
| GAGGUC | 2.038 ± 0.01 | 2.04 ± 0.052 |
| GAUAAG | 1.917 ± 0.0057 | 2 ± 0.033 |
| GACGCU | 2.05 ± 0.0071 | 2.03 ± 0.021 |
| UAGCAA | 1.918 ± 0.0043 | 1.98 ± 0.035 |
| UAGCAC | 1.992 ± 0.0065 | 2 ± 0.036 |
| CACUGC | 2.057 ± 0.016 | 2.05 ± 0.032 |
| CACUGU | 2.057 ± 0.0081 | 2.056 ± 0.011 |
| CAGCUU | 1.987 ± 0.0035 | 2.01 ± 0.026 |
| CAGCUC | 2.05 ± 0.023 | 2.035 ± 0.013 |
| CAGCUA | 2.02 ± 0.0022 | 2.04 ± 0.022 |

| Variant | normalized RNA/DNA level without ligand (log10) [1] | normalized RNA/DNA level with ligand (log10) [2] |
| --- | --- | --- |
| GAGCGU | 1.982 ± 0.0095 | 2 ± 0.048 |
| GAGCGC | 2.002 ± 0.017 | 2.03 ± 0.054 |
| GAGCGG | 1.982 ± 0.011 | 2.06 ± 0.031 |
| AAUACA | 1.998 ± 0.014 | 1.995 ± 0.015 |
| AAUACG | 1.934 ± 0.0037 | 1.99 ± 0.056 |
| UAGAUA | 1.961 ± 0.0041 | 2.01 ± 0.025 |
| UAGAUU | 1.98 ± 0.0065 | 2.01 ± 0.047 |
| UAGAUC | 2.0543 ± 0.0014 | 2.06 ± 0.055 |
| GAGAAU | 1.973 ± 0.0097 | 2.02 ± 0.051 |
| CAGGCC | 2.06 ± 0.046 | 2.02 ± 0.049 |
| CAGGCA | 2.022 ± 0.019 | 2.009 ± 0.0063 |
| CAGGCG | 2.02 ± 0.023 | 2.03 ± 0.029 |
| CAGUUG | 2.041 ± 0.0043 | 2.06 ± 0.013 |
| CAGUUU | 1.989 ± 0.011 | 2.03 ± 0.039 |
| CAUAGA | 2.002 ± 0.0073 | 2.01 ± 0.033 |
| CAUAGC | 1.9903 ± 0.00018 | 1.98 ± 0.047 |
| AAGUAU | 1.959 ± 0.011 | 2.02 ± 0.03 |
| AAGUAC | 2.02 ± 0.024 | 2.03 ± 0.039 |
| UACGUC | 2.07 ± 0.019 | 2.06 ± 0.066 |
| UACGUA | 1.918 ± 0.0029 | 1.98 ± 0.037 |
| UACGUU | 1.971 ± 0.0048 | 1.997 ± 0.014 |
| CAGGGU | 1.974 ± 0.014 | 2 ± 0.031 |
| CAGGGA | 1.962 ± 0.005 | 2 ± 0.029 |

| Variant | normalized RNA/DNA level without ligand (log10) [1] | normalized RNA/DNA level with ligand (log10) [2] |
| --- | --- | --- |
| CAGGGC | 1.994 ± 0.013 | 2.03 ± 0.046 |
| CAGGGG | 1.87 ± 0.049 | 1.996 ± 0.016 |
| AACUGC | 2.048 ± 0.015 | 2.06 ± 0.038 |
| AACUGU | 1.97 ± 0.016 | 2.007 ± 0.02 |
| CACGGG | 1.91 ± 0.0032 | 1.992 ± 0.0038 |
| CACGGA | 1.99 ± 0.038 | 2.02 ± 0.029 |
| CACGGC | 2.046 ± 0.014 | 2.03 ± 0.026 |
| CACGGU | 1.954 ± 0.0088 | 1.95 ± 0.04 |
| UACUUC | 2.0503 ± 0.00055 | 2.03 ± 0.042 |
| UACUUU | 2.001 ± 0.0048 | 2.03 ± 0.042 |
| UACUUA | 1.9834 ± 0.00066 | 2.01 ± 0.0084 |
| AAGAGC | 1.984 ± 0.0028 | 1.99 ± 0.044 |
| CAUAAG | 1.95 ± 0.035 | 2.03 ± 0.035 |
| UAGGCU | 2.03 ± 0.024 | 2.05 ± 0.061 |
| UAGGCA | 1.972 ± 0.00036 | 2.027 ± 0.02 |
| UAGGCC | 2.047 ± 0.004 | 2.04 ± 0.044 |
| UAGGCG | 1.762 ± 0.0037 | 1.97 ± 0.032 |
| CAGCAC | 2.03 ± 0.022 | 1.98 ± 0.045 |
| CAGCAG | 1.962 ± 0.015 | 2.03 ± 0.052 |
| CAGCAA | 1.963 ± 0.018 | 1.971 ± 0.013 |
| GAGUCU | 2.0246 ± 0.001 | 2.02 ± 0.027 |
| GAGUCG | 1.984 ± 0.019 | 2 ± 0.034 |
| UAGGGC | 2.01 ± 0.0043 | 2.02 ± 0.03 |

| Variant | normalized RNA/DNA level without ligand (log10) [1] | normalized RNA/DNA level with ligand (log10) [2] |
| --- | --- | --- |
| GACGUC | 2.065 ± 0.0072 | 2.02 ± 0.054 |
| GACGUU | 2 ± 0.022 | 2.01 ± 0.045 |
| CACUCC | 2.044 ± 0.0027 | 2.02 ± 0.04 |
| CACUCA | 2.013 ± 0.0028 | 2.03 ± 0.025 |
| CACUCG | 2.01 ± 0.03 | 2 ± 0.024 |
| CACUCU | 2.057 ± 0.015 | 2.043 ± 0.018 |
| AAGACU | 2.01 ± 0.0024 | 2.02 ± 0.04 |
| AAGACC | 2.03 ± 0.033 | 2.03 ± 0.03 |
| UAGUGU | 1.901 ± 0.008 | 1.99 ± 0.0065 |
| UAGUGA | 1.8778 ± 0.0018 | 2 ± 0.025 |
| AAGCUU | 2.01 ± 0.019 | 2.012 ± 0.0064 |
| AAGCUC | 2.055 ± 0.019 | 2.054 ± 0.014 |
| AAGCUG | 2.01 ± 0.0066 | 2.048 ± 0.0075 |
| AAGCUA | 1.991 ± 0.0072 | 2 ± 0.024 |
| UAGGUC | 2.05 ± 0.022 | 2 ± 0.054 |
| UAGGUU | 1.961 ± 0.011 | 2 ± 0.026 |
| AACGGG | 1.892 ± 0.0076 | 2.01 ± 0.032 |
| AACGGA | 1.969 ± 0.019 | 2.02 ± 0.028 |
| AACGGC | 2.058 ± 0.0083 | 2.03 ± 0.027 |
| AACGGU | 1.96 ± 0.022 | 2 ± 0.021 |
| GAUACU | 2.001 ± 0.0036 | 2.01 ± 0.036 |
| GAUACC | 2.003 ± 0.0086 | 2.026 ± 0.0083 |
| GAGCUU | 2.051 ± 0.011 | 2.04 ± 0.064 |

From the supplement of paper PMC6757056
